pKd, pKi: −log10 of the molar value.
Key:
MOR-1D = target: T1, MOR-1D (Mus musculus, UniProt P42866); assay type: binding; details: MOR-1D vs MOR-1, p<0.05
T1 construct: The cDNA fragments containing the full length MOR-1 or the MOR-1 variants in pCRII-ToPo were subcloned into pcDNA3.1; expressed in transfected cells

[1] = target: MOR-1 (mu-opioid receptor-1, full length) (mouse) (UniProt P42866); test: competition with ^3H-DAMGO, CHO cell membranes
[2] = target: MOR-1D splice variant of the mu-opioid receptor-1 (mouse) (UniProt P42866); test: competition with ^3H-DAMGO, CHO cell membranes
[3] = target: MOR-1E splice variant of the mu-opioid receptor-1 (mouse) (UniProt P42866); test: competition with ^3H-DAMGO, CHO cell membranes
[4] = target: MOR-1C splice variant of the mu-opioid receptor-1 (mouse); test: competition with ^3H-DAMGO, CHO cell membranes
[5] = target: MOR-1 (mu-opioid receptor-1, full length) (mouse) (UniProt P42866); test: saturation radioligand binding, membranes of stably transfected CHO cells
[6] = target: MOR-1D splice variant of the mu-opioid receptor-1 (mouse) (UniProt P42866); test: as above
[7] = target: MOR-1E splice variant of the mu-opioid receptor-1 (mouse) (UniProt P42866); test: as above
[8] = target: MOR-1C splice variant of the mu-opioid receptor-1 (mouse); test: as above
MOR-1E = target: T2, MOR-1E (Mus musculus, UniProt P42866); assay type: binding; details: MOR-1E vs MOR-1
T2 construct: The cDNA fragments containing the full length MOR-1 or the MOR-1 variants in pCRII-ToPo were subcloned into pcDNA3.1; expressed in transfected cells

Substance | pKi [1] | pKi [2] | pKi [3] | pKi [4] | other results
[D-Ser^2, Leu^5]enkephalin-Thr^6 [DSLET] |  |  |  |  | Potency against binding to MOR-1D relative to MOR-1 (in words) (MOR-1D): twice as potent
[D-Ala^2, MePhe^4, Gly(ol)^5]enkephalin (DAMGO) (peptide) | 8.74 | 9.15 | 8.92 | 9.03 | pKd [5]: 8.76; pKd [6]: 9.14; pKd [7]: 8.92; pKd [8]: 9.03
DADLE (peptide) | 8.68 | 8.89 | 8.60 | 8.49 | 
[D-Ser^2, Leu^5]enkephalin-Thr^6 (DSLET) (peptide) |  |  |  |  | fold potency against MOR-1 [2]: 2 fold
β-endorphin: endogenous opioid peptide |  |  |  |  | Affinity of MOR-1E compared with MOR-1 (MOR-1E): significantly higher affinity

Source: patent publication US6500927B2 (priority 1998, dated 2002)
